Measurements as given in article PMC10320249 (eBioMedicine, 2023).
Blank lines part the entries; values can stand above or below the binder they belong to.

What was measured:
[1] = biological target: recombinant human CD38 (soluble CD38) (Homo sapiens, UniProt P28907); assay: BLI
[2] = biological target: CD38 expressed on the plasma membrane of tumour cell lines (Homo sapiens, UniProt P28907); assay: cell-based or functional assay

- Kd [1]: 1.1 nM
- CD38 cyclase activity on Daudi cells (NGD+ to cGDPR), EC50 [2]: 0.419 µg/mL
- CD38 hydrolase activity on Daudi cells (ε-NAD+ to ε-ADPR), EC50 [2]: 0.335 µg/mL
B1: HexaBody-CD38 (GEN3014), hexamerization-enhanced human IgG1 with the E430G Fc mutation (antibody, V domains shown)
VH: QVQLVQSGAEVKKPGSSVKVSCKAFGGTFSSYAISWVRQAPGQGLEWMGRIIRFLGIANYAQKFQGRVTLIADKSTNTAYMELSSLRSEDTAVYYCAGEPGERDPDAVDIWGQGTMVTVSS
VL: DIQMTQSPSSLSASVGDRVTITCRASQGIRSWLAWYQQKPEKAPKSLIYAASSLQSGVPSRFSGSGSGTDFTLTISSLQPEDFATYYCQQYNSYPLTFGGGTKVEIK

- Kd [1]: 3.9 nM
- CD38 cyclase activity on Daudi cells, EC50 [2]: 0.179 µg/mL
- CD38 hydrolase activity on Daudi cells, EC50 [2]: 0.028 µg/mL
B2: daratumumab (antibody, V domains shown)
VH: EVQLLESGGGLVQPGGSLRLSCAVSGFTFNSFAMSWVRQAPGKGLEWVSAISGSGGGTYYADSVKGRFTISRDNSKNTLYLQMNSLRAEDTAVYFCAKDKILWFGEPVFDYWGQGTLVTVSS
VL: not shown
